Ends that are not written are not given here.
Biological target: humanized variant of IPN002 (hu-IPN002)
Experiment: competition ELISA; competitor: biotin-Tau 13-24 on hu-IPN002

- IC50 (read off the curve): 400 nM
B1: Peptide 1 (Tau amino acids 13-24) (peptide)
peptide: DHAGTYGLGDRK
modifications: also: biotinylated, position not given here, also used non-biotinylated

Source: patent US20160122421A1
